Series [1] deals with T1, RBL2 (NM-005611), substrate peptide from a peptide library, Q08999.
T1 chain: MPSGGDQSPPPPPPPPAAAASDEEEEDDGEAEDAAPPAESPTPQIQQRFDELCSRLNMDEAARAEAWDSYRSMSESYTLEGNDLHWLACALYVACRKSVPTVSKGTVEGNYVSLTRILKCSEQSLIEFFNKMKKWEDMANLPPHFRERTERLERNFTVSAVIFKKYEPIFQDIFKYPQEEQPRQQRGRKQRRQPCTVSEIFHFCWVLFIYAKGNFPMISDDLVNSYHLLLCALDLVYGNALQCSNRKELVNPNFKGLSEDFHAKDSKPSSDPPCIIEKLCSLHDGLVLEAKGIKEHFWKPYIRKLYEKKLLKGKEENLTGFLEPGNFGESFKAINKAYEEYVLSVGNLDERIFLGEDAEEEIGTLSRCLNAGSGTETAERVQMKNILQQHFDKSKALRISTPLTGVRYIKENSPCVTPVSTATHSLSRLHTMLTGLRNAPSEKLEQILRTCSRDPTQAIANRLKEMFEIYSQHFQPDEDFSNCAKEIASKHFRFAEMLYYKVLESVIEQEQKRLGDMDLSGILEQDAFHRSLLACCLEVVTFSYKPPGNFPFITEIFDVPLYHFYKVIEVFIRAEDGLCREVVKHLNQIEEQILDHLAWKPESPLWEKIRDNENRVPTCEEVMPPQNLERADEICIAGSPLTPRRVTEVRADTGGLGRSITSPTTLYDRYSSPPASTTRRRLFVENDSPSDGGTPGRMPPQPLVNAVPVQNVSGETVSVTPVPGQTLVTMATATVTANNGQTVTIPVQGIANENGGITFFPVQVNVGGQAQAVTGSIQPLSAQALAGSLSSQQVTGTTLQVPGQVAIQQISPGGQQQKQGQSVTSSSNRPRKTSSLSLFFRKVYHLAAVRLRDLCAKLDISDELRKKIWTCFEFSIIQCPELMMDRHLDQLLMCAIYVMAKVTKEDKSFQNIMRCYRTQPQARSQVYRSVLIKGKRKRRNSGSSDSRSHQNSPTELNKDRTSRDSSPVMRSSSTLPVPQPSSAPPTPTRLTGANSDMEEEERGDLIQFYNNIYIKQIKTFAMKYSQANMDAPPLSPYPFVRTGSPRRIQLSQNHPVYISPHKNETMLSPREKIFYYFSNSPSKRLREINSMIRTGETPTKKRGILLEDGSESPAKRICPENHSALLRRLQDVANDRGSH

The target of series [2] is T2, FoxO3a (NP-963853), substrate peptide from a peptide library, O43524.
T2 chain: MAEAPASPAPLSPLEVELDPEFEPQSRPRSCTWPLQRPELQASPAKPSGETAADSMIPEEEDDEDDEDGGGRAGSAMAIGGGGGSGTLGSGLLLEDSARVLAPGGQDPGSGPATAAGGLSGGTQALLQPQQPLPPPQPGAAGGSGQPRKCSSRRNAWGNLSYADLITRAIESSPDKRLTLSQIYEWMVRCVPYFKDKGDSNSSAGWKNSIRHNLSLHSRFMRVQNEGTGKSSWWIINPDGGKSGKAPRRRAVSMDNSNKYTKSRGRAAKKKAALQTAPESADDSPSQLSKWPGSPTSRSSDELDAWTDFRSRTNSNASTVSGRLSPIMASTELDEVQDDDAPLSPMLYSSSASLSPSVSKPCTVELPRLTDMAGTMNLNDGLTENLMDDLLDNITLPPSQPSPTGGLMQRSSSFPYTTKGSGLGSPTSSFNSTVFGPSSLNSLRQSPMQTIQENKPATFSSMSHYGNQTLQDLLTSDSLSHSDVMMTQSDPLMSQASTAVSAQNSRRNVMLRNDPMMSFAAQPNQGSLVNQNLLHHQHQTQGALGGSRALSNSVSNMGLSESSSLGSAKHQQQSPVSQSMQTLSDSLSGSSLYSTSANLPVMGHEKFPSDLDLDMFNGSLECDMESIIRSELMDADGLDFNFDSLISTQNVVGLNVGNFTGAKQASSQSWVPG

B1: human Hip kinase 4 (HipK4), recombinant, expressed in Sf9 insect cells (protein)
chain: MSTIQSETDCYDIIEVLGKGTFGEVAKGWRRSTGEMVAIKILKNDAYRNRIIKNELKLLHCMRGLDPEEAHVIRFLEFFHDALKFYLVFELLEQNLFEFQKENNFAPLPARHIRTVTLQVLTALARLKELAIIHADLKPENIMLVDQTRCPFRVKVIDFGSASIFSEVRYVKEPYIQSRFYRAPEILLGLPFCEKVDVWSLGCVMAELHLGWPLYPGNNEYDQVRYICETQGLPKPHLLHAACKAHHFFKRNPHPDAANPWQLKSSADYLAETKVRPLERRKYMLKSLDQIETVNGGSVASRLTFPDREALAEHADLKSMVELIKRMLTWESHERISPSAALRHPFVSMQQLRSAHETTHYYQLSLRSYRLSLQVEGKPPTPVVAAEDGTPYYCLAEEKEAAGMGSVAGSSPFFREEKAPGMQRAIDQLDDLSLQEAGHGLWGETCTNAVSDMMVPLKAAITGHHVPDSGPEPILAFYSSRLAGRHKARKPPAGSKSDSNFSNLIRLSQVSPEDDRPCRGSSWEEGEHLGASAEPLAILQRDEDGPNIDNMTMEAERPDPELFDPSSCPGEWLSEPDCTLESVRGPRAQGLPPRRSHQHGPPRGATSFLQHVTGHH
In the case of B1, the “phosphorylation of library peptides (HTS kinase assay, streptavidin-SPA beads)” value was “The proteins identified as HipK4 substrates with the aid of such an experimental approach are the following, inter alia; FoxO3a (NP-963853) and RBL2 (NM-005611)” in series [1]; “The proteins identified as HipK4 substrates with the aid of such an experimental approach are the following, inter alia; FoxO3a (NP-963853) and RBL2 (NM-005611)” in series [2].

The values are drawn from US20090238836.
